doi:10.1101/2021.04.06.21255004, “Hemoglobin Interacts with Endothelial Nitric Oxide Synthase to Regulate Vasodilation in Human Resistance Arteries” (medRxiv, 2021)

Target: T1, purified human alpha globin (human, UniProt P69905 1-142, biotinylated using EZ-Link NHS-PEG4 Biotinylation Kit)
T1 construct: hemoglobin subunit alpha, human; called full-length alpha globin in the discussion; Immobilised through biotin on streptavidin biosensors; also called full-length alpha globin; source: purified
Assay: BLI; Octet RED96; biotinylated alpha globin immobilised on streptavidin biosensors; analyte in solution, 120 s association, 120 s dissociation in assay buffer
Settings: both partners purified

T1 sequence (P69905 whole entry): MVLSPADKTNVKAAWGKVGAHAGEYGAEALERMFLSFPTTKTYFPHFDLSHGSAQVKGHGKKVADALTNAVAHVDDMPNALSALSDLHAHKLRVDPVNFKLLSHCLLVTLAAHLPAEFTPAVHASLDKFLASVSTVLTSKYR

Kd: 109 nM
B1: alpha hemoglobin stabilizing protein (natural protein, UniProt Q9NZD4 1-102, looked up)
chain: MALLKANKDLISAGLKEFSVLLNQQVFNDPLVSEEDMVTVVEDWMNFYINYYRQQVTGEPQERDKALQELRQELNTLANPFLAKYRDFLKSHELPSHPPPSS
notes: alpha hemoglobin stabilizing protein; also called AHSP
